# B1: BAR (bialaphos resistance; phosphinothricin acetyltransferase) from Streptomyces hygroscopicus (enzyme, UniProt P16426 1-183, looked up)
# chain: MSPERRPADIRRATEADMPAVCTIVNHYIETSTVNFRTEPQEPQEWTDDLVRLRERYPWLVAEVDGEVAGIAYAGPWKARNAYDWTAESTVYVSPRHQRTGLGSTLYTHLLKSLEAQGFKSVVAVIGLPNDPSVRMHEALGYAPRGMLRAAGFKHGNWHDVGFWQLDFSLPVPPRPVLPVTEI
# Target: the molecule itself
# Assay: crystal structure
protein,measurement,value
B1,stoichiometry N,2

# — paper doi:10.1101/122184 (bioRxiv, 2017)
